Article PMC6145873

Legend:
[1] = molecular target: Thermus thermophilus PilF type IVa pilus assembly ATPase, full length (Thermus thermophilus HB8); test: cryo-EM structure; single particle reconstructions of full length TtPilF as apoprotein and with 1 mM AMPPNP; ~200 μg/ml; 25 mM HEPES pH 7.5, 150 mM NaCl, 5 mM MgCl2, 5% glycerol; C2 symmetry applied
[2] = molecular target: TtPilFc, C-terminal tryptic fragment of Thermus thermophilus PilF (N2, CTD and Zn-binding domains) (Thermus thermophilus HB8); test: crystal structure; TtPilFc with bound ATP/Mg2+, space group C2, 2.44 Å; crystals at 20 °C in 0.2 M sodium bromide, 0.1 M Bis-Tris propane pH 6.5, 20% PEG 3350

Substance	stoichiometry N [1]	stoichiometry N [2]
Thermus thermophilus PilF type IVa pilus assembly ATPase, full length (enzyme)	6	
TtPilFc, C-terminal tryptic fragment of Thermus thermophilus PilF (N2, CTD and Zn-binding domains) (domain or fragment)		6
